Results from the supplement of paper PMC11136658.

Tested on: peptide library, one residue held at a place counted from the Y acceptor
Assay: relative phosphorylation of the sub-library (ratio to the mean residue at this position); higher = residue favoured
Outline: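 Peptide library mixtures, biotinylated and centred on Tyr, each fixed one residue at one position from −5 to +5. Purified recombinant kinases were incubated with them for 90 min in 384-well plates alongside 50 μM ATP and γ-32P-ATP, and the captured, rinsed peptides on streptavidin membranes were measured by phosphorimaging and ImageQuant. Normalization divided each position's intensities by the sum of its 18 randomized residues (16 for the Ser/Thr-free library) and multiplied by that number, so that values give phosphorylation relative to the mean randomized residue.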

Sequence of TNK1, construct: aa106-390, human (Q13470 106-390, looked up): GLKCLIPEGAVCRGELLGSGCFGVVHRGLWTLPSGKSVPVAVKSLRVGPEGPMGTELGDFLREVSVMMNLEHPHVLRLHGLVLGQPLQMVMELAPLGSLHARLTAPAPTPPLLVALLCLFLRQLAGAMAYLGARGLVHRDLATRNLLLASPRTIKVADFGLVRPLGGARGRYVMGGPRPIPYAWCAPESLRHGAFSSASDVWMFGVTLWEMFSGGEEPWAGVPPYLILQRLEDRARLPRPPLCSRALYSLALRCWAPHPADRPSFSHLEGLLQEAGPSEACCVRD

TNK1, construct: aa106-390, human (from UniProt Q13470)
relative phosphorylation
Conditions | at +1 | at +2 | at +3 | at +4 | at +5 | at -1 | at -2 | at -3 | at -4 | at -5
A fixed | 1.56 | 0.82 | 0.743 | 0.902 | 0.977 | 0.86 | 1.01 | 0.962 | 1.07 | 1.08
D fixed | 0.25 | 0.328 | 0.335 | 0.714 | 0.594 | 0.276 | 0.529 | 0.641 | 0.78 | 0.845
E fixed | 0.386 | 0.471 | 0.268 | 0.706 | 0.558 | 0.277 | 0.576 | 0.606 | 0.8 | 0.737
F fixed | 1.09 | 1.28 | 1.87 | 1.25 | 1.1 | 1.01 | 0.762 | 0.95 | 0.886 | 0.885
G fixed | 0.859 | 0.527 | 0.82 | 0.965 | 1.11 | 0.924 | 1.39 | 1.26 | 1.32 | 1.24
H fixed | 1.12 | 0.884 | 1.24 | 1.1 | 0.947 | 1.64 | 1.14 | 1.09 | 1.01 | 1.1
I fixed | 1.05 | 1.43 | 1.27 | 0.73 | 0.857 | 0.809 | 0.627 | 0.571 | 0.807 | 0.849
K fixed | 1.2 | 1.09 | 0.728 | 1.25 | 1.23 | 1.59 | 1.41 | 1.43 | 1.29 | 1.37
L fixed | 1 | 1.23 | 1.21 | 0.892 | 0.997 | 0.825 | 0.678 | 0.784 | 0.963 | 0.904
M fixed | 1.05 | 1.36 | 1.16 | 1.11 | 1.13 | 0.927 | 0.681 | 0.84 | 0.941 | 0.934
N fixed | 0.602 | 0.876 | 0.627 | 0.959 | 0.978 | 0.898 | 1.22 | 1.1 | 0.936 | 1.03
P fixed | 0.544 | 0.843 | 0.976 | 1.15 | 1.53 | 1.18 | 1.36 | 1.33 | 1.44 | 1.26
Q fixed | 1.08 | 0.825 | 0.573 | 1.1 | 0.864 | 1.09 | 1.07 | 0.982 | 1.02 | 1.04
R fixed | 1.45 | 1.27 | 0.987 | 1.28 | 1.17 | 2.56 | 1.8 | 1.6 | 1.44 | 1.26
S fixed | 0.936 | 0.787 | 0.661 | 0.901 | 0.982 | 0.779 | 1.23 | 1.15 | 0.863 | 0.999
T fixed | 1.03 | 1.07 | 0.665 | 0.891 | 1.01 | 0.895 | 1.01 | 1.06 | 0.765 | 0.912
V fixed | 1.18 | 1.4 | 1.19 | 0.846 | 0.878 | 0.733 | 0.748 | 0.702 | 0.828 | 0.832
W fixed | 1.6 | 1.51 | 2.69 | 1.26 | 1.1 | 0.723 | 0.749 | 0.947 | 0.845 | 0.718
pThr fixed | 0.344 | 0.38 | 0.211 | 0.367 | 0.429 | 0.291 | 0.492 | 0.539 | 0.593 | 0.738
pTyr fixed | 0.725 | 0.413 | 0.326 | 0.454 | 0.485 | 0.538 | 0.594 | 0.733 | 0.791 | 0.812

TNK2, construct: aa110-476, human (from UniProt Q07912)
relative phosphorylation
Conditions | at +1 | at +2 | at +3 | at +4 | at +5 | at -1 | at -2 | at -3 | at -4 | at -5
A fixed | 2.37 | 1 | 0.658 | 1.04 | 1.1 | 0.664 | 1.24 | 1.03 | 1.2 | 1.13
D fixed | 0.799 | 0.461 | 0.257 | 0.749 | 1.13 | 0.346 | 0.917 | 0.791 | 0.737 | 0.812
E fixed | 1.01 | 0.72 | 0.202 | 0.835 | 1.03 | 0.323 | 1 | 0.671 | 0.743 | 0.783
F fixed | 0.716 | 1.39 | 1.03 | 0.929 | 1.22 | 0.934 | 0.737 | 0.901 | 1.05 | 0.971
G fixed | 1.5 | 0.489 | 0.492 | 1.71 | 1.08 | 0.562 | 1.25 | 1.18 | 1.23 | 1.47
H fixed | 0.684 | 0.724 | 0.513 | 1.01 | 0.897 | 1.59 | 1 | 0.972 | 1 | 1.05
I fixed | 0.759 | 1.25 | 3.15 | 0.888 | 0.904 | 1.64 | 0.74 | 0.744 | 0.767 | 0.834
K fixed | 0.587 | 0.915 | 0.316 | 0.774 | 0.694 | 1.3 | 0.894 | 1.07 | 1.2 | 1.12
L fixed | 0.684 | 0.964 | 2.32 | 0.742 | 1.15 | 1.73 | 0.694 | 0.911 | 0.779 | 0.787
M fixed | 1.37 | 1.03 | 1.07 | 1.02 | 0.97 | 1.26 | 0.69 | 0.924 | 0.89 | 0.815
N fixed | 0.613 | 0.755 | 0.359 | 0.903 | 0.836 | 0.7 | 1.03 | 1.04 | 0.958 | 0.996
P fixed | 0.233 | 1.26 | 0.881 | 1.55 | 1.16 | 0.809 | 1.69 | 1.36 | 1.3 | 1.22
Q fixed | 1.5 | 1.03 | 0.437 | 0.873 | 0.955 | 1.15 | 1.21 | 1.03 | 1.17 | 0.966
R fixed | 0.89 | 1.32 | 0.367 | 0.995 | 0.543 | 1.82 | 1.05 | 1.32 | 1.36 | 1.31
S fixed | 1.18 | 1.02 | 0.543 | 1.21 | 1.01 | 0.626 | 1.16 | 1.12 | 0.824 | 0.952
T fixed | 1.05 | 1.25 | 0.94 | 1.03 | 1.14 | 0.936 | 0.987 | 1.02 | 0.762 | 0.951
V fixed | 1.04 | 1.32 | 2.39 | 0.846 | 0.949 | 0.951 | 0.952 | 0.825 | 0.785 | 0.755
W fixed | 1.03 | 1.11 | 2.07 | 0.898 | 1.22 | 0.658 | 0.759 | 1.1 | 1.25 | 1.08
pThr fixed | 0.667 | 1.05 | 0.311 | 0.814 | 0.654 | 0.486 | 0.969 | 0.721 | 0.716 | 0.775
pTyr fixed | 0.727 | 2.16 | 0.495 | 0.959 | 1.03 | 0.669 | 0.714 | 0.904 | 0.888 | 1
